# Where no end group is shown, it is not given here. Side-chain parts run from the residue outwards. [ ]: non-standard residue; d: D form. The star is where a group is joined. O‑CO‑N‑SO2‑IQ = carbamate-linked N-sulfonyl 5-aminoethylsulfonamide isoquinoline (O-CO-N-SO2-IQ); SO2‑IQ = 5-aminoethylsulfoneamide isoquinoline, O=S(=O)(NCCN*)c1cccc2cnccc12; X1 = 5‑aminoethylsulfonamide isoquinoline, O=S(=O)(NCCN*)c1cccc2cnccc12; S‑IQ = 5-mercaptoaminopropyl isoquinoline; hLeu = CC(C)CC[C@H](N)C(=O)O; GltNH2 = not defined here; Nle = CCCC[C@H](N)C(=O)O; Orn = NCCC[C@H](N)C(=O)O; bGaba = not defined here; Dab = NCC[C@H](N)C(=O)O; Nva = CCC[C@H](N)C(=O)O; Abu = CC[C@H](N)C(=O)O; Dap = NC[C@H](N)C(=O)O; Ph2 = not defined here; GlyNH2 = aminoglycine; Ava = NCCCCC(=O)O; βAla = NCCC(=O)O
# B1: PTR 6020 (peptide)
# peptide: RPRTS[Abu]F
# modifications: not fully specified (C-terminus); printed as Arg-Pro-Arg-Thr-Ser-Abu-Phe-(O-CO-N-bAla-SO2-IQ); also: -(O-CO-N-bAla-SO2-IQ) on Phe7, attachment unclear
# Tests used:
# Test in all cases: cell-based or functional assay
# protein kinase B = protein kinase B (UniProt P31749)
# protein kinase B, sequence (P31749 whole entry): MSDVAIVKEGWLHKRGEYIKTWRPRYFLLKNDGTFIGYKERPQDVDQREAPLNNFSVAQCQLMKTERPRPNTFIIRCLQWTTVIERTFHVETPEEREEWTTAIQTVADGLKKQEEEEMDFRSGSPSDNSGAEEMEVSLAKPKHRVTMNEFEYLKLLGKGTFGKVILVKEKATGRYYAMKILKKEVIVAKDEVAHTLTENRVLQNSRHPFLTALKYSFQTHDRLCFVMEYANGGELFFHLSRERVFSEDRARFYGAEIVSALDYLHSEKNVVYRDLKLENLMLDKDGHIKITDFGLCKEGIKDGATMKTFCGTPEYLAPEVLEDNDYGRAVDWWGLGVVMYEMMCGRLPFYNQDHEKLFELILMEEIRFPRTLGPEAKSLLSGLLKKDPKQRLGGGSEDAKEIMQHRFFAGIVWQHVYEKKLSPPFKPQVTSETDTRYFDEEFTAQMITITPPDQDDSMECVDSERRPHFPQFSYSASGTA
# protein kinase B, P31749 = biological target: protein kinase B, P31749
# protein kinase B, P31749, sequence (P31749 whole entry): as above
# [1] = biological target: protein kinase A, catalytic subunit
Binder,"PKB IC50 (protein kinase B, P31749) [µM]","Activity PKB (protein kinase B, P31749) [µM]",also measured
RPR[Nle]E([βAla-X1])A[hLeu] (not fully specified (C-terminus)) [TY-60020-94],,,% inhibition of kinase activity at 1 µM; PKB-kinase (spa) Assay 1 (protein kinase B): 9%; % inhibition of kinase activity at 1 µM; PKB-kinase (spa) Assay 2 (protein kinase B): 31%
RPR[Nle]E([βAla-SO2‑IQ])S[Nle] [PTR 6096],0.93,,
RPR[Orn]SSF [AR 60003-52],,2.5,
RPR[Nva][GlyNH2]A[hLeu] [60006-5A],,,"% Inhibition PKB I (protein kinase B, P31749): 47%; % Inhibition PKB II (protein kinase B, P31749): 43%; IC50 µM PKB (protein kinase B, P31749): 10 µM"
RPRT[Dap]SF (not fully specified (residue 5)) [PTR 6106],10,,
RPR[Nle]E([βAla-X1])AF (not fully specified (C-terminus)) [TY-60020-93],,,% inhibition of kinase activity at 1 µM; PKB-kinase (spa) Assay 1 (protein kinase B): -12%; % inhibition of kinase activity at 1 µM; PKB-kinase (spa) Assay 2 (protein kinase B): 58%
RPRTSE(SO2‑IQ)F [PTR 6014],25,25,
RPRMSSF [AR 60003-50],,2.5,
RPR[Orn]E([Gly-X1])[Dab][hLeu] (not fully specified (C-terminus)) [TY-60020-42],,,% inhibition of kinase activity at 1 µM; PKA-kinase Assay 1 [1]: 99%; % inhibition of kinase activity at 1 µM; PKA-kinase Assay 2 [1]: 99%; IC50 PKA [1]: 50 nM; % inhibition of kinase activity at 1 µM; PKB-kinase (spa) Assay 1 (protein kinase B): 80%; % inhibition of kinase activity at 1 µM; PKB-kinase (spa) Assay 2 (protein kinase B): 86%; IC50 PKB (protein kinase B): 110 nM
RPRTS[Abu]F-{O‑CO‑N‑SO2‑IQ} (not fully specified; printed as Arg-Pro-Arg-Thr-Ser-Abu-Phe-(O-CO-N-SO2-IQ)) [PTR 6013],4,3,
RPR[Nva]E(S‑IQ)SF [PTR 6134],0.217,,
RPR[Nle]E([βAla-SO2‑IQ])[Dab]F [PTR 6140],0.413,,
RPRTS[GlyNH2]F [60005-5],,,"% Inhibition PKB I (protein kinase B, P31749): 96%; % Inhibition PKB II (protein kinase B, P31749): 93%; IC50 µM PKB (protein kinase B, P31749): 2.4 µM"
RPRTD(SO2‑IQ)SF [PTR 6130],9.5,,
RPR[Nle]E([βAla-X1])[Nva][hLeu] (not fully specified (C-terminus)) [TY-60020-96],,,% inhibition of kinase activity at 1 µM; PKB-kinase (spa) Assay 1 (protein kinase B): 0%; % inhibition of kinase activity at 1 µM; PKB-kinase (spa) Assay 2 (protein kinase B): 54%
RPR[Nva][GlyNH2][GltNH2][hLeu] (reading uncertain) [60006-16A],,,"% Inhibition PKB I (protein kinase B, P31749): 42%; % Inhibition PKB II (protein kinase B, P31749): 42%"
RPR[Nle]E(S‑IQ)SF [PTR 6136],0.114,,
RPR[Nle]E([βAla-SO2‑IQ])[Abu]F [PTR 6138],2,,
RPR[Orn]E([bGaba-SO2‑IQ])SF (reading uncertain) [PTR 6088],1.18,,

Binder,"PKB IC50 (protein kinase B, P31749) [µM]","Activity PKB (protein kinase B, P31749) [µM]",also measured
RPRTE([βAla-SO2‑IQ])SF [PTR 6082],5.54,,
RPRTS[Dap][hLeu] [TY 60002-96],,5,
RPRVS[Abu]F [TY 60002-61],,5,
RPR[Nle]E([βAla-SO2‑IQ])SF [PTR 6086],0.57,,
RPR[Nva]E([βAla-SO2‑IQ])A[hLeu] [PTR 6152],5,,
RPRTSA[hLeu] [TY 60002-50],,5,"% Inhibition PKB I (protein kinase B, P31749): 62%"
RPR[Nle]E(SO2‑IQ)SF [PTR 6128],9,,
RPR[Nle]SS[Nle] [AR 60003-62],,< 1,"% inhibition at 1 µM (protein kinase B, P31749): 70%"
B1,18,> 20,
RPR[Nva]E(SO2‑IQ)A[hLeu] [PTR 6150],25,,
RPRTE([Ava-SO2‑IQ])SF [PTR 6090],5.6,,
RPR[Nva][GlyNH2][Abu][hLeu] [60006-7B],,,"% Inhibition PKB I (protein kinase B, P31749): 53%; % Inhibition PKB II (protein kinase B, P31749): 47%"
RPRTS[Abu][hLeu] [TY 60002-73],,5,"% Inhibition PKB I (protein kinase B, P31749): 44%; IC50 µM PKB (protein kinase B, P31749): 34 µM"
RPRTE([βAla-S‑IQ])SF [PTR 6102],0.3,,"IC50 PKB (protein kinase B, P31749): 300 nM"
RPR[Nva][GlyNH2][Dap][Ph2] (reading uncertain) [60006-11B],,,"% Inhibition PKB I (protein kinase B, P31749): 51%; % Inhibition PKB II (protein kinase B, P31749): 44%"
RPR[Orn]E(SO2‑IQ)SF [PTR 6132],0.02,,"IC50 PKB (protein kinase B, P31749): 20 nM"
RPRTE(SO2‑IQ)SF [PTR 6016],1,0.9,
RPRRSSF [AR 60003-53],,3,
RPRTE(S‑IQ)SF [PTR 6104],0.1,,"IC50 PKB (protein kinase B, P31749): 100 nM"

# Source: US7407939
